The values that follow come from EP4707304A1 (Axcynsis Therapeutics Pte. Ltd., dated 2024).

Experiment [1] addresses T1, VLP-hCLDN6 (human) (UniProt P56747).
T1 sequence: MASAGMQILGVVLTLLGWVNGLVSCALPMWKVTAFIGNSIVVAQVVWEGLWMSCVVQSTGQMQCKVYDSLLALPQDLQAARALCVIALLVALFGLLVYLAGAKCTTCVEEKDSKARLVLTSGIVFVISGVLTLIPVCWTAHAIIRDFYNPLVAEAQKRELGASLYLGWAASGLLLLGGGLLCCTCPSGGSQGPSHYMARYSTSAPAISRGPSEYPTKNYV
Put plainly: ELISA, coated VLP-hCLDN6, 10 ul antibody sample, HRP-Protein A. On the technique in general: An ELISA detects its analyte on a solid surface through an enzyme-linked reagent.

For experiment [2], the target named is T1, VLP-hCLDN6 (human). Put plainly: ELISA, coated VLP-hCLDN6, 100 ul antibody sample, HRP-Protein A.
Experiment [3] addresses T1, VLP-hCLDN6 (human). Put plainly: ELISA, coated VLP-hCLDN6, 10 ul antibody sample (second well), HRP-Protein A.
The target in experiment [4] is T1, VLP-hCLDN6 (human). As to the kind of experiment: ELISA, coated VLP-hCLDN6, 100 ul antibody sample (second well), HRP-Protein A.

B1: humanized antibody hAb-6 (antibody, V domains shown)
VH: EVKLVESGGGLVKPGGSLRLSCAASGFTFNSYTMSWVRQAPGKRLEWVVTISSGGGRTYYPDSVKGRFTISRDNAKNTLYLQMSSLRAEDTAVYYCIRGDYRYDGFAYWGQGTLVTVSS
VL: DIQMTQSPSSLSASVGDRVTITCRASENIDSYLAWYQQKPGKSPQLLVYASTLLQDGVPSRFSGSRSGTDFTLTISSLQPEDVATYYCQHYYSIPYTFGSGTKLEIK
On to B1, for which the OD450 with VLP-hCLDN6 (human) [1] was 0.89; with VLP-hCLDN6 (human) [2], 1.55; with VLP-hCLDN6 (human) [3] it was 1.04; with VLP-hCLDN6 (human) [4], 1.61.

B2: humanized antibody hAb-17 (antibody, V domains shown)
VH: EVKLVESGGGLVQPGGSLRLSCAASGFTFNSYTMSWVRQAPGKRLEWVVTISSGGGRTYYPDSVKGRFTISRDNAKNTLYLQMSSLRAEDTAVYYCIRGDYRYDGFAYWGQGTLVTVSS
VL: DIQMTQSPSSLSASVGDRVTITCRASENIDSYLAWYQQKPGKSPQLLVYASTLLVDGVPSRFSGSRSGTQFSLTISSLQPEDVARYYCQHYYSIPYTFGSGTKLEIK
As for B2, the OD450 with VLP-hCLDN6 (human) [1] amounted to 1.6; in the experiment with VLP-hCLDN6 (human) [2] it was 1.93; with VLP-hCLDN6 (human) [3], 1.72; in the experiment with VLP-hCLDN6 (human) [4] it was 1.78.

B3: humanized antibody hAb-11 (antibody, V domains shown)
VH: EVKLVESGGGLVKPGGSLRLSCAASGFTFNSYTMSWVRQTPAKRLEWVVTISSGGGRTYYPDSVKGRFTISRDNAKNTLYLQMSSLRAEDTAVYYCIRGDYRYDGFAYWGQGTLVTVSS
VL: DIQMTQSPSSLSASVGDRVTITCRASENIDSYLAWYQQKPGKSPQLLVYASTLLQDGVPSRFSGSRSGTQFTLTISSLQPEDVARYYCQHYYSIPYTFGSGTKLEIK
For the molecule B3, the OD450 with VLP-hCLDN6 (human) [1] stood at 1.41; in the experiment with VLP-hCLDN6 (human) [2], 1.81; with VLP-hCLDN6 (human) [3], 1.54; in the experiment with VLP-hCLDN6 (human) [4], 1.8.

B4: humanized antibody hAb-9 (antibody, V domains shown)
VH: EVKLVESGGGLVKPGGSLRLSCAASGFTFNSYTMSWVRQAPGKRLEWVVTISSGGGRTYYPDSVKGRFTISRDNAKNTLYLQMSSLRAEDTAVYYCIRGDYRYDGFAYWGQGTLVTVSS
VL: DIQMTQSPSSLSASVGDRVTITCRASENIDSYLAWYQQKPGKSPQLLVYASTLLVDGVPSRFSGSRSGTQFSLTISSLQPEDVARYYCQHYYSIPYTFGSGTKLEIK
For B4, the OD450 in the experiment with VLP-hCLDN6 (human) [1] came to 1.71; with VLP-hCLDN6 (human) [2], 1.84; with VLP-hCLDN6 (human) [3], 1.57; in the experiment with VLP-hCLDN6 (human) [4], 1.94.

B5: humanized antibody hAb-7 (antibody, V domains shown)
VH: EVKLVESGGGLVKPGGSLRLSCAASGFTFNSYTMSWVRQAPGKRLEWVVTISSGGGRTYYPDSVKGRFTISRDNAKNTLYLQMSSLRAEDTAVYYCIRGDYRYDGFAYWGQGTLVTVSS
VL: DIQMTQSPSSLSASVGDRVTITCRASENIDSYLAWYQQKPGKSPQLLVYASTLLQDGVPSRFSGSRSGTQFTLTISSLQPEDVARYYCQHYYSIPYTFGSGTKLEIK
For the molecule B5, the OD450 came out at 1.37 in the experiment with VLP-hCLDN6 (human) [1], 1.73 in the experiment with VLP-hCLDN6 (human) [2], 1.46 with VLP-hCLDN6 (human) [3] and 1.91 in the experiment with VLP-hCLDN6 (human) [4].

B6: humanized antibody hAb-21 (antibody, V domains shown)
VH: EVKLVESGGGLVQPGGSLRLSCAASGFTFNSYTMSWVRQTPAKRLEWVVTISSGGGRTYYPDSVKGRFTISRDNAKNTLYLQMSSLRAEDTAVYYCIRGDYRYDGFAYWGQGTLVTVSS
VL: DIQMTQSPSSLSASVGDRVTITCRASENIDSYLAWYQQKPGKSPQLLVYASTLLVDGVPSRFSGSRSGTQFSLTISSLQPEDVARYYCQHYYSIPYTFGSGTKLEIK
B6: the OD450 with VLP-hCLDN6 (human) [1] was found to be 2.05; with VLP-hCLDN6 (human) [2], 2.23; with VLP-hCLDN6 (human) [3], 1.9; with VLP-hCLDN6 (human) [4], 2.45.

B7: humanized antibody hAb-10 (antibody, V domains shown)
VH: EVKLVESGGGLVKPGGSLRLSCAASGFTFNSYTMSWVRQTPAKRLEWVVTISSGGGRTYYPDSVKGRFTISRDNAKNTLYLQMSSLRAEDTAVYYCIRGDYRYDGFAYWGQGTLVTVSS
VL: DIQMTQSPSSLSASVGDRVTITCRASENIDSYLAWYQQKPGKSPQLLVYASTLLQDGVPSRFSGSRSGTDFTLTISSLQPEDVATYYCQHYYSIPYTFGSGTKLEIK
B7: the OD450 with VLP-hCLDN6 (human) [1] amounted to 1.18; in the experiment with VLP-hCLDN6 (human) [2], 1.5; in the experiment with VLP-hCLDN6 (human) [3], 1.13; in the experiment with VLP-hCLDN6 (human) [4], 1.51.

B8: humanized antibody hAb-13 (antibody, V domains shown)
VH: EVKLVESGGGLVKPGGSLRLSCAASGFTFNSYTMSWVRQTPAKRLEWVVTISSGGGRTYYPDSVKGRFTISRDNAKNTLYLQMSSLRAEDTAVYYCIRGDYRYDGFAYWGQGTLVTVSS
VL: DIQMTQSPSSLSASVGDRVTITCRASENIDSYLAWYQQKPGKSPQLLVYASTLLVDGVPSRFSGSRSGTQFSLTISSLQPEDVARYYCQHYYSIPYTFGSGTKLEIK
Take B8: the OD450 was determined as 1.68 with VLP-hCLDN6 (human) [1], 1.95 with VLP-hCLDN6 (human) [2], 1.7 with VLP-hCLDN6 (human) [3] and 2.26 in the experiment with VLP-hCLDN6 (human) [4].

B9: humanized antibody hAb-19 (antibody, V domains shown)
VH: EVKLVESGGGLVQPGGSLRLSCAASGFTFNSYTMSWVRQTPAKRLEWVVTISSGGGRTYYPDSVKGRFTISRDNAKNTLYLQMSSLRAEDTAVYYCIRGDYRYDGFAYWGQGTLVTVSS
VL: DIQMTQSPSSLSASVGDRVTITCRASENIDSYLAWYQQKPGKSPQLLVYASTLLQDGVPSRFSGSRSGTQFTLTISSLQPEDVARYYCQHYYSIPYTFGSGTKLEIK
On to B9, for which the OD450 in the experiment with VLP-hCLDN6 (human) [1] stood at 1.62; with VLP-hCLDN6 (human) [2] it was 1.7; in the experiment with VLP-hCLDN6 (human) [3] it was 1.57; in the experiment with VLP-hCLDN6 (human) [4] it was 1.79.

B10: humanized antibody hAb-18 (antibody, V domains shown)
VH: EVKLVESGGGLVQPGGSLRLSCAASGFTFNSYTMSWVRQTPAKRLEWVVTISSGGGRTYYPDSVKGRFTISRDNAKNTLYLQMSSLRAEDTAVYYCIRGDYRYDGFAYWGQGTLVTVSS
VL: DIQMTQSPSSLSASVGDRVTITCRASENIDSYLAWYQQKPGKSPQLLVYASTLLQDGVPSRFSGSRSGTDFTLTISSLQPEDVATYYCQHYYSIPYTFGSGTKLEIK
As to B10, the OD450 in the experiment with VLP-hCLDN6 (human) [1] is 1.17; in the experiment with VLP-hCLDN6 (human) [2], 1.68; in the experiment with VLP-hCLDN6 (human) [3], 1.13; with VLP-hCLDN6 (human) [4], 1.52.

B11: humanized antibody hAb-8 (antibody, V domains shown)
VH: EVKLVESGGGLVKPGGSLRLSCAASGFTFNSYTMSWVRQAPGKRLEWVVTISSGGGRTYYPDSVKGRFTISRDNAKNTLYLQMSSLRAEDTAVYYCIRGDYRYDGFAYWGQGTLVTVSS
VL: DIQMTQSPSSLSASVGDRVTITCRASENIDSYLAWYQQKPGKSPQLLVYASTLLQDGVPSRFSGSRSGTQFTLTISSLQPEDFATYYCQHYYSIPYTFGSGTKLEIK
Consider B11, for which the OD450 with VLP-hCLDN6 (human) [1] came out at 1.27; with VLP-hCLDN6 (human) [2] it was 1.84; with VLP-hCLDN6 (human) [3], 1.22; with VLP-hCLDN6 (human) [4] it was 1.88.

B12: humanized antibody hAb-16 (antibody, V domains shown)
VH: EVKLVESGGGLVQPGGSLRLSCAASGFTFNSYTMSWVRQAPGKRLEWVVTISSGGGRTYYPDSVKGRFTISRDNAKNTLYLQMSSLRAEDTAVYYCIRGDYRYDGFAYWGQGTLVTVSS
VL: DIQMTQSPSSLSASVGDRVTITCRASENIDSYLAWYQQKPGKSPQLLVYASTLLQDGVPSRFSGSRSGTQFTLTISSLQPEDFATYYCQHYYSIPYTFGSGTKLEIK
Regarding B12, the OD450 with VLP-hCLDN6 (human) [1] stood at 1.26; with VLP-hCLDN6 (human) [2], 1.39; with VLP-hCLDN6 (human) [3], 1.24; in the experiment with VLP-hCLDN6 (human) [4], 1.71.

B13: humanized antibody hAb-15 (antibody, V domains shown)
VH: EVKLVESGGGLVQPGGSLRLSCAASGFTFNSYTMSWVRQAPGKRLEWVVTISSGGGRTYYPDSVKGRFTISRDNAKNTLYLQMSSLRAEDTAVYYCIRGDYRYDGFAYWGQGTLVTVSS
VL: DIQMTQSPSSLSASVGDRVTITCRASENIDSYLAWYQQKPGKSPQLLVYASTLLQDGVPSRFSGSRSGTQFTLTISSLQPEDVARYYCQHYYSIPYTFGSGTKLEIK
As for B13, the OD450 came out at 1.39 with VLP-hCLDN6 (human) [1], 1.78 with VLP-hCLDN6 (human) [2], 1.47 with VLP-hCLDN6 (human) [3] and 1.8 with VLP-hCLDN6 (human) [4].

B14: humanized antibody hAb-14 (antibody, V domains shown)
VH: EVKLVESGGGLVQPGGSLRLSCAASGFTFNSYTMSWVRQAPGKRLEWVVTISSGGGRTYYPDSVKGRFTISRDNAKNTLYLQMSSLRAEDTAVYYCIRGDYRYDGFAYWGQGTLVTVSS
VL: DIQMTQSPSSLSASVGDRVTITCRASENIDSYLAWYQQKPGKSPQLLVYASTLLQDGVPSRFSGSRSGTDFTLTISSLQPEDVATYYCQHYYSIPYTFGSGTKLEIK
In the case of B14, the OD450 in the experiment with VLP-hCLDN6 (human) [1] is 0.22; with VLP-hCLDN6 (human) [2], 0.97; with VLP-hCLDN6 (human) [3] it was 0.23; with VLP-hCLDN6 (human) [4] it was 0.99.

B15: humanized antibody hAb-12 (antibody, V domains shown)
VH: EVKLVESGGGLVKPGGSLRLSCAASGFTFNSYTMSWVRQTPAKRLEWVVTISSGGGRTYYPDSVKGRFTISRDNAKNTLYLQMSSLRAEDTAVYYCIRGDYRYDGFAYWGQGTLVTVSS
VL: DIQMTQSPSSLSASVGDRVTITCRASENIDSYLAWYQQKPGKSPQLLVYASTLLQDGVPSRFSGSRSGTQFTLTISSLQPEDFATYYCQHYYSIPYTFGSGTKLEIK
On to B15, for which the OD450 was 1.36 with VLP-hCLDN6 (human) [1], 1.76 in the experiment with VLP-hCLDN6 (human) [2], 1.4 with VLP-hCLDN6 (human) [3] and 1.67 with VLP-hCLDN6 (human) [4].

B16: humanized antibody hAb-20 (antibody, V domains shown)
VH: EVKLVESGGGLVQPGGSLRLSCAASGFTFNSYTMSWVRQTPAKRLEWVVTISSGGGRTYYPDSVKGRFTISRDNAKNTLYLQMSSLRAEDTAVYYCIRGDYRYDGFAYWGQGTLVTVSS
VL: DIQMTQSPSSLSASVGDRVTITCRASENIDSYLAWYQQKPGKSPQLLVYASTLLQDGVPSRFSGSRSGTQFTLTISSLQPEDFATYYCQHYYSIPYTFGSGTKLEIK
Regarding B16, the OD450 was 1.38 with VLP-hCLDN6 (human) [1], 1.81 with VLP-hCLDN6 (human) [2], 1.41 in the experiment with VLP-hCLDN6 (human) [3] and 1.68 with VLP-hCLDN6 (human) [4].
